Experimental data taken from patent US20090297524A1 (DOMANTIS, published 2009).

T1: Recombinant human CD40L (human, UniProt P29965 108-261, limits assumed)
T1 construct: also called CD40 ligand
T1 sequence (looked up): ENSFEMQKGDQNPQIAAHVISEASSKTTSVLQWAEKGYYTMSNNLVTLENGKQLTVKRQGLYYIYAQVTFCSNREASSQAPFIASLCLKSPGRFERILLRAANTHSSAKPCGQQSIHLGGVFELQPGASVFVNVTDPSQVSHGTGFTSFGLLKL

B1: DOM-40 (other)
VH: EVQLLESGGGLVQPGGSLRLSCAASGFTFKAYDMGWVRQAPGKGLEWVSQIGRDGSFTYYADSVKGRFTISRDNSKNTLYLQMNSLRAEDTAVYYCAKPRRYAIFTFDRGQGTLVTVSS
notes: VH dAb
B2: DOM-44 (other)
VH: EVQLLESGGGLVQPGGSLRLSCAASGFTFTSYEMGWVRQAPGKGLEWVSSIEPTGITTYYADSVKGRFTISRDNSKNTLYLQMNSLRAEDTAVYYCAKPHFTELGFDYWGQGTLVTVSS
notes: VH dAb
B3: DOM-45 (other)
VH: EVQLLESGGGLVQPGGSLRLSCAASGFTFGNYAMAWVRQAPGKGLEWVSKIGAQGLHTYYAGSVKGRFTISRDNSKNTLYLQMNSLRAEDTAVYYCAKQTTMDYERFDYWGQGTLVTVSS
notes: VH dAb
B4: DOM-46 (other)
VH: EVQLLESGGGLVQPGGSLRLSCAASGFTFELYAMAWVRQAPGKGLEWVSGIGAVGETTYYADSVKGRFTISRDNSKNTLYLQMNSLRAEDTAVYYCAKEANNLSDNLVFDYWGQGTLVTVSS
notes: VH dAb
B5: DOM-48 (other)
VL: DIQMTQSPSSLSASVGDRVTITCRASQWIGDSLSWYQQKPGKAPKLLIYFGSYLQNGVPSRFSGSGSGTDFTLTISSLQPEDFATYYCQQYMITPTTFGQGTKVEIKR
notes: Vk dAb
B6: DOM-50 (other)
VL: DIQMTQSPSSLSASVGDRVTITCRASQWIGDSLSWYQQKPGKAPKLLIYFGSYLQSGVPSRFSGSGSGTDFTLTISSLQPEDSATYYCQQYQYVPSTFGQGTKVEIKQ
notes: Vk dAb
B7: DOM-51 (other)
VL: DIQMTQSPSSLSASVGDRVTITCRASQPIVDELDWYQQKPGKAPKLLIYAASILQSGVPSRFSGSGSGTDFTLTISSLQPEDFATYYCHQWSTYPTTFGQGTKVEIKR
notes: Vk dAb
B8: DOM-53 (other)
VL: DIQMTQSPSSLSASVGDRVTITCRASQAIYGGLRWYQQKPGKAPKLLIYGESMLQSGVPSRFSGSGSGTDFTLTISSLHPEDFATYYCQQVYHKPFTFGQGTKVEIKR
notes: Vk dAb
B9: DOM-54 (other)
VH: EVQLLESGGGLVQPGGSLRLSCAASGFTFTAYRMAWVRQAPGKGLEWVSWISPSGSGTYYADSVKGRFTISRDNSKNTLYLQMNSLRAEDTAVYYCAKTLTDSPSGHYEFDYWGQGTLVTVSS
notes: VH dAb
B10: DOM-55 (other)
VH: EVQLLESGGGLVQPGGSLRLSCAASGFTFARYEMGWVRQAPGKGLEWVSRITAQGLGTYYADSVKGRFTISRDNSKNTLYLQMNSLRAEDTAVYYCAKYLTDFSSGHQEFDYWGQGTLVTVSS
notes: VH dAb
B11: DOM-56 (other)
VH: EVQLLESGGGLVQPGGSLRLSCAASGFTFNDYTMGWVRQAPGKGLEWVSWIHGTGGQTYYADSVKGRFTISRDNSKNTLYLQMNSLRAEDTAVYYCAKALADRSGGVVEFDYWGQGTLVTVSS
notes: VH dAb
B12: DOM-59 (other)
VH: EVQLLESGGGLVQPGGSLRLSCAASGFTFLDYAMGWVRQAPGKGLEWVSTISPMGMGTYYADSVKGRFTISRDNSKNTLYLQMNSLRAEDTAVYYCAKSSAISFTSDISNFDYWGQGTLVTVSS
notes: VH dAb
B13: DOM-61 (other)
VH: EVQLLESGGGLVQPGGSLRLSCAASGFTFAAYAMTWVRQAPGKGLEWVSYISPNGTATYYADSVKGRFTISRDNSKNTLYLQMNSLRAEDTAVYYCAEYVGMRWNSFDYWGQGTLVTVSS
notes: VH dAb
B14: DOM-69 (other)
VH: EVQLLESGGGLVQPGGSLRLSCAASGFTFLDYGMAWVRQAPGKGLEWVSAISPLGLSTYYADSVKSRFTISRDNSKNTLYLQMNSLRAEDTAVYYCAKEVRVGRGVHPPKFDYWGQGTLVTVSS
notes: VH dAb
B15: DOM-70 (other)
VH: EVQLLESGGGLVQPGGSLRLSCAASGFTFENYAMSWVRQAPGKGLEWVSTIAPLGVPTYYADSVKGRFTISRDNSKNTLYLQMNSLRAEDTAVYYCAKKKVGAWLQSRSFDYWGQGTLVTVSS
notes: VH dAb
B16: DOM-71 (other)
VH: EVQLLESGGGLVQPGGSLRLSCAASGFTFEGYPMSWVRQAPGKGLEWVSTISPLGPDTYYADSVKGRFTISRDNSKNTLYLQMNSLRAEDTAVYYCAKLLMGEYLNSRTFDYWGQGTLVTVSS
notes: VH dAb
B17: DOM-72 (other)
VH: EVQLLESGGGLVQPGGSLRLSCAASGFTFEAYPMSWVRQAPGKGLEWVSSISPLGLWTYYADSVKGRFTISRDNSKNTLYLQMNSLRAEDTAVYYCAKLSAGAETHVYRLFDYWGQGTLVTVSS
notes: VH dAb
B18: DOM-75 (other)
VH: EVQLLESGGGLVQPGGSLRLSCAASGFTFLQYPMGWVRQAPGKGLEWVSTISPVGLTTYYADSVKGRFTISRDNSKNTLYLQMNSLRAEDTAVYYCAKLFEGSRIQRDVGFDYWGQGTLVTVSS
notes: VH dAb
B19: DOM-81 (other)
VH: EVQLLESGGGLVQPGGFLRLSCAASGFTFELYPMAWVRQAPGKGLEWVSSISPVGFLTYYADSVKGRFTISRDNSKNTLYLQMNSLRAEDTAVYYCAKGHEGSYTPRSAFDYWGQGTLVTVSS
notes: VH dAb
B20: DOM-82 (other)
VH: EVQLLESGGGLVQPGGSLRLSCAASGFTFVAYPMAWVRQAPGKGLEWVSTIAPLGGNTYYADSVKGRFTISRDNSKNTLYLQMNSLRAEDTAVYYCAKRPEGLQIDSQNFDYWGQGTLVTVSS
notes: VH dAb
B21: DOM-85 (other)
VH: EVQLLESGGGLVQPGGSLRLSCAASGFTFEQYDMRWVRQAPGKGLEWVSWIDEAGHETYYADSVKGRFTISRDNSRNTLYLQMNSLRAEDTAVYYCAKGMDGFDYWGQGTLVTVSS
notes: VH dAb
B22: DOM-87 (other)
VL: DIQMTQSPSSLSASVGDRVTITCRASQDIDESLMWYQQKPGKAPRLLIYGVSYLQSGVPSRFSGSGSGTDFTLTISSLQPEDFATYYCQQRWKAPFTFGQGTKVEIKR
notes: Vk dAb
B23: DOM.88 (other)
VL: DIQMTQSPSSLSASVGDRVTITCRASQEIVEDLYWYQQKPGKAAKLLIYGASWLQSGVPSRFSGSGSGTDFTLTISSLQPEDFATYYCQQTRRRPYTFGQGTKVEIKR
notes: Vk dAb
B24: DOM-10 (other)
VH: EVQLLESGGGLVQPGGSLRLSCAASGFTFIAYDMSWVRQAPGKGLEWVSWIDEWGLQTYYADSVKGRFTISRDNSKNTLYLQMNSLRAEDTAVYYCAKKTPEEFDYWGQGTLVTVSS
notes: VH dAb
B25: DOM-8 (other)
VL: DIQMTQSPSSLSASVGDRVTITCRASQFIDTSLEWYQQKPGKAPKLLIYDGSHLQSGVPSRFSGSGSGTDFTLTISSLQPEDLATYYCQQYWVLPLTFGQGTKVEIKR
notes: Vk dAb
B26: DOM-2 (other)
VH: EVQLLESGGGLVQPGGSLRLSCAASGFTFSDYEMMWVRQAPGKGLEWVSTITSDGISTYYADSVKGRFTIFRDNSKNTLYLQMNSLRAEDTAVYYCAKSGRFFDYWGQGTLVTVSS
notes: VH dAb
B27: DOM-4 (other)
VH: EVQLLESGGGLVQPGGSLRLSCAASGFTFDNYEMTWVRQAPGKGLEWVSSITSDGTSTYYADSVKGRFTISRDNSKNTLYLQMNSLRAEDTAVYYCAKPNPPFDYWGQGTLVTVSS
notes: VH dAb
B28: DOM-5 (other)
VH: EVQLLESGGGLVQPGGSLRLSCAASGFTFDGYEMAWVRQAPGKGLEWVSSITSDGTSTYYADSVKGRFTISRDNSKNTLYLQMNSLRAEDTAVYYCAKPGLRFDYWGQGTLVTVSS
notes: VH dAb
B29: DOM-7 (other)
VH: EVQLLESGGGLVQPGGSLRLSCAASGFTFNLYEMTWVRQAPGKGLEWVSSITSDGVSTYYADSVKGRFTISRDNSKNTLYLQMNSLRAEDTAVYYCAKAGVIFDYWGQGTLVTVSS
notes: VH dAb
B30: DOM-20 (other)
VH: EVQLLESGGGLVQPGGSLRLSCAASGFTFSGYQMAWVRQAPGKGLEWVSGISSEGLTTYYADSVKGRFTISRDNSKNTLYLQMNSLRAEDTAVYYCAKLGRRFDYWGQGTLVTVSS
notes: VH dAb
B31: DOM-24 (other)
VH: EVQLLESGGGLVQPGGSLRLSCAASGFTFSNYQMAWVRQAPGKGLEWVSSITSEGGSTYYADSVKGRFTISRDNSKNTLYLQMNSLRAEDTAVYYCAKPGKNFDYWGQGTLVTVSS
notes: VH dAb; also called DOM8-24; monomeric DOM-24
B32: DOM-27 (other)
VH: EVQLLESGGGLVQPGGSLRLSCAASGFTFNLYEMTWVRQAPGKGLEWVSSITSDGVSTYYADSVKGRFTISRDNSKNTLYLQMNSLRAEDTAVYYCAKPDSPFDYWGQGTLVTVSS
notes: VH dAb
B33: DOM-30 (other)
VH: EVQLLESGGGLVQPGGSLRLSCAASGFTFARYQMAWVRQAPGKGLEWVSTISDDGDSTYYADSVKGRFTISRDNSKNTLYLQMNSLRAEDTAVYYCAKLDKLFDYWGQGTLVTVSS
notes: VH dAb

Molecular target: T1, Recombinant human CD40L
Assay: CD40L/CD40-Fc receptor binding assay;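 further: plate assay with coated human CD40-Fc, bound ligand detected via HRP anti-biotin antibody and TMB, OD at 450 nm, lower signal indicates stronger inhibition by dAb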
Procedure: (§1) A 96 well Nunc Maxisorp assay plate was coated overnight at 4° C. with 100 μl per well of recombinant human CD40/Fc (R&D Systems) at 0.5 μg/ml in carbonate buffer. The plate was washed 3 times with 300 μl of 0.05% Tween/PBS and 3 times with 300 μl of PBS using a Tecan plate washer. The wells were blocked using 200 μl of PBS containing 2% (w/v) BSA and incubated for a minimum of 1 h at room temperature. The wells were washed as above, then 50 μl of purified dAb protein (or unpurified supernatant containing dAb from a micro-culture expression) was added to each well.
(§2) The plate was washed as described above, then 100 μl HRP conjugated anti-biotin antibody (1:5000 dilution in diluent) added to each well and the plate incubated for 1 hr at room temperature. The plate was washed again as described above using a Tecan plate washer and the assay developed using 100 μl of SureBlue 1-Component TMB MicroWell Peroxidase solution (the plate was left at room temperature for up to 20 min). The reaction was stopped by the addition of 100 μl M hydrochloric acid. The OD₄₅₀ₙₘ of the plate was assayed within 30 minutes of acid addition. The OD₄₅₀ₙₘ is proportional to the amount of bound streptavidin-HRP conjugate, therefore the greater the degree of dAb inhibition the lower the OD₄₅₀ₙₘ of the resulting signal.

Binding result, binds:
B1
B2
B3
B4
B5
B6
B7
B8
B9
B10
B11
B12
B13
B14
B15
B16
B17
B18
B19
B20
B21
B22
B23

Molecular target: T1, Recombinant human CD40L
Assay: CD40L receptor binding assay: dAb inhibits CD40L (3 ng/ml) binding to coated CD40/Fc
Procedure: as §1, §2

IC50, 50 nM:
B24

IC50, 8 nM:
B30
B33

IC50, 900 nM:
B25

IC50, 0.417 nM:
B31

IC50, 100 nM:
B27

IC50, 1500 nM:
B29

IC50, 800 nM:
B26

IC50, ~100 nM:
B32

IC50, 3 nM:
B28
